The values that follow come from PMC6151538 (2017).

As a reminder, the Kd is the constant that tells how readily two partners part at equilibrium. Low values mean a tighter complex, high ones a looser complex.

The target of one assay is T1, fetuin (Bos taurus, UniProt P12763).
T1 chain: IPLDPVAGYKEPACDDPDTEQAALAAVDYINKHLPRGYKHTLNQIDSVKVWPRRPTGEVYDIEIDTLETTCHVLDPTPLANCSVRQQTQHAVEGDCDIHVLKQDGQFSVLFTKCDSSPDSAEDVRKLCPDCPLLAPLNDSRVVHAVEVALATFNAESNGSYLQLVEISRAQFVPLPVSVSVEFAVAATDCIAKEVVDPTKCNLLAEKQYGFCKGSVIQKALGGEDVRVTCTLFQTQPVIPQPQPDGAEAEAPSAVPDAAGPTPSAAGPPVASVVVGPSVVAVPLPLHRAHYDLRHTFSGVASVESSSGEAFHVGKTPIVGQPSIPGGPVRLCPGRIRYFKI
In words: solid-phase assay, Scatchard analysis.

For the next assay, the target named is T2, asialofetuin (Bos taurus, UniProt P12763).
T2 chain: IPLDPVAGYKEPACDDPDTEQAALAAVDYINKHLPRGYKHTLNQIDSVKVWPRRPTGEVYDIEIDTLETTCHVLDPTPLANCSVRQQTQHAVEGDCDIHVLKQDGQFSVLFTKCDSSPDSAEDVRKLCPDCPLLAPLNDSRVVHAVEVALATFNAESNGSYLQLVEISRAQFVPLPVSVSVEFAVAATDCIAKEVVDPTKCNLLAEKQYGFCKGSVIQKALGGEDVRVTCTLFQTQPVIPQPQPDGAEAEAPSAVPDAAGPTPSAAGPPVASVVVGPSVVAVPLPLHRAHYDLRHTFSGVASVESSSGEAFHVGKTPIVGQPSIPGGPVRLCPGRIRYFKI
The assay can be described thus: solid-phase assay, Scatchard analysis.

B1: Gal-8 (NN) N-terminal CRD tandem homodimer (NN, no linker) (protein)
chain: MMLSLNNLQNIIYNPVIPFVGTIPDQLDPGTLIVIRGHVPSDADRFQVDLQNGSSMKPRADVAFHFNPRFKRAGCIVCNTLINEKWGREEITYDTPFKREKSFEIVIMVLKDKFQVAVNGKHTLLYGHRIGPEKIDTLGIYGKVNIHSIGFSFSS
modifications: engineered linker-free tandem of two Gal-8N CRDs, biotinylated; fetuin with sialylated N-glycans
Turning to B1, the dissociation constant Kd in the assay with fetuin stood at 0.093 µM.

B2: Gal-8 (NN) N-terminal CRD tandem homodimer (NN, no linker) (protein)
chain: MMLSLNNLQNIIYNPVIPFVGTIPDQLDPGTLIVIRGHVPSDADRFQVDLQNGSSMKPRADVAFHFNPRFKRAGCIVCNTLINEKWGREEITYDTPFKREKSFEIVIMVLKDKFQVAVNGKHTLLYGHRIGPEKIDTLGIYGKVNIHSIGFSFSS
modifications: engineered linker-free tandem of two Gal-8N CRDs, biotinylated; fetuin chemically desialylated (N-glycans)
Regarding B2, in the assay with asialofetuin, binding was put at a Kd of 0.148 µM.
